Experimental findings from US20140105889A1 (published 2014) are described below.

The chains are these.
T1: human FcγRIIa(R) (human, UniProt P12318 36-217)
T1 construct: Analyte in solution on Biacore; also called FcγRIIa type R; FcgRIIaR
T1 chain: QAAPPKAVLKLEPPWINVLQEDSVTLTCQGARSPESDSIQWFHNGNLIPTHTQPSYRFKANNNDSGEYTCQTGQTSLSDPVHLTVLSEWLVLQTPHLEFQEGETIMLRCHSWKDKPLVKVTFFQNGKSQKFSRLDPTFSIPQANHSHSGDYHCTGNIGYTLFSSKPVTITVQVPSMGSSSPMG

T2: human FcγRIIb (human, UniProt P31994 43-217, limits assumed)
T2 construct: also called FcgRIIb; FcγIIB
T2 sequence: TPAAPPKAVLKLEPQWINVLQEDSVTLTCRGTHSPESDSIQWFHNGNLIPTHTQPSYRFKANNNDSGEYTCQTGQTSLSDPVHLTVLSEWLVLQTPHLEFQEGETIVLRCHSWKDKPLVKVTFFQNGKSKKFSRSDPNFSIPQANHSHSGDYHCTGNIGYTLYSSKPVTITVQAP

T3: human FcγRIIa type H (human, UniProt P12318 36-217)
T3 construct: also called FcgRIIaH; FcγRIIa(H)
T3 sequence: T1 chain with R133H

T4: human FcγRIIb (human, UniProt P31994 43-217)
T4 construct: also called FcγIIB
T4 sequence: T2 sequence

B1: GpH7-B3 variant P331G / GpL16-k0 (antibody, human IgG1)
heavy: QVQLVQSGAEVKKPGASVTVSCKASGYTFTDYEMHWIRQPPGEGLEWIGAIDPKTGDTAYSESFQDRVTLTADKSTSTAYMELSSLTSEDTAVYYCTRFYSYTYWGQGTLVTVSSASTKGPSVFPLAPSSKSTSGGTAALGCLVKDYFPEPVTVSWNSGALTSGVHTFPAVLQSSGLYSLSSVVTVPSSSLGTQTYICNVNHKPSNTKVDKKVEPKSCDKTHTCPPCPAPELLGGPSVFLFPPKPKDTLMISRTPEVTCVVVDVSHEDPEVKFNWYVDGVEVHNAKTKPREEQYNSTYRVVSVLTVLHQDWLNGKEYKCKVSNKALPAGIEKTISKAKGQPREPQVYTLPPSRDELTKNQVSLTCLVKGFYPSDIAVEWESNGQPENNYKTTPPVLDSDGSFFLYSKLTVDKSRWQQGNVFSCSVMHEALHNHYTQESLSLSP
light: DIVMTQSPLSLPVTPGEPASISCQASESLVHSNRNTYLHWYLQKPGQSPQLLIYKVSNRFSGVPDRFSGSGSGTDFTLKISRVEAEDVGVYYCSQNTHVPPTFGQGTKVEIE
notes: Anti-glypican-3 IgG1; constant region B3 = G1d with K439E
B2: IL6R-BP197/IL6R-L (antibody)
heavy: QVQLQESGPGLVKPSETLSLTCAVSGHSISHDHAWSWVRQPPGEGLEWIGFISYSGITNYNPSLQGRVTISRDNSKNTLYLQMNSLRAEDTAVYYCARSLARTTAMDYWGEGTLVTVSSASTKGPSVFPLAPSSKSTSGGTAALGCLVKDYFPEPVTVSWNSGALTSGVHTFPAVLQSSGLYSLSSVVTVPSSSLGTQTYICNVNHKPSNTKVDKKVEPKSCDKTHTCPPCPAPDYLGDDSVFLFPPKPKDTLMISRTPEVTCVVVDVSDEDGEVKFNWYVDGVEVHNAKTKPREEQDNSTYRVVSVLTVLHQDWLNGKEYKCKVSNDALPKPIEKTISKAKGQPREPQVYTLPPSRDELTKNQVSLTCLVKGFYPSDIAVEWESNGQPENNYKTTPPVLDSDGSFFLYSKLTVDKSRWQQGNVFSCSVMHEALHNHYTQESLSLSP
light: DIQMTQSPSSLSASVGDRVTITCRASQDISSYLNWYQQKPGKAPKLLIYYTSRLHSGVPSRFSGSGSGTDFTFTISSLQPEDIATYYCQQGNTLPYTFGQGTKVEIK
notes: copies: 2 + 2
B3: IL6R-BP207/IL6R-L (antibody, human IgG1)
heavy: B2 heavy with Y236L, D239G, D270H, G273P, D298Y, D328K, K332R
light: B2 light
notes: The common L chain is IL6R-L; copies: 2 + 2
B4: IL6R-BP206/IL6R-L (antibody, human IgG1)
heavy: B2 heavy with Y236L, D239G, D270H, D298Y, D328K, K332R
light: B2 light
notes: as for B3
B5: IL6R-BP209/IL6R-L (antibody, human IgG1)
heavy: B2 heavy with D235E, Y236L, D298Y, D328A, K332R
light: B2 light
notes: as for B3
B6: IL6R-BP208/IL6R-L (antibody, human IgG1)
heavy: B2 heavy with Y236L, D298Y, D328K, K332R
light: B2 light
notes: as for B3
B7: IL6R-BP212/IL6R-L (antibody, human IgG1)
heavy: B2 heavy with Y236L, D239G, D328K, K332R
light: B2 light
notes: as for B3
B8: IL6R-BP203/IL6R-L (antibody, human IgG1)
heavy: B2 heavy with D235E, Y236L, D270H, D298Y, D328K, K332R
light: B2 light
notes: as for B3
B9: IL6R-BP198/IL6R-L (antibody, human IgG1)
heavy: B2 heavy with D239G, D298Y, D328A
light: B2 light
notes: as for B3
B10: IL6R-BP199/IL6R-L (antibody)
heavy: B2 heavy with Y236L, D239G, D270H, G273P, D298Y, K332R
light: B2 light
notes: copies: 2 + 2
B11: IL6R-BP195/IL6R-L (antibody, human IgG1)
heavy: B2 heavy with D328A
light: B2 light
notes: Anti-human IL-6 receptor human IgG1 variant; copies: 2 + 2
B12: IL6R-BP196/IL6R-L (antibody, human IgG1)
heavy: B2 heavy with D235E, D239G, D298Y, D328A
light: B2 light
notes: as for B11
B13: IL6R-BP197/IL6R-L (antibody, human IgG1)
heavy: B2 heavy
light: B2 light
notes: as for B11
B14: IL6R-BP191/IL6R-L (antibody, human IgG1)
heavy: B2 heavy with Y236L, D239G, D298Y, D328A
light: B2 light
notes: as for B11
B15: IL6R-BP190/IL6R-L (antibody, human IgG1)
heavy: B2 heavy with D235E, Y236L, D298Y, D328K
light: B2 light
notes: as for B11
B16: IL6R-BP187/IL6R-L (antibody, human IgG1)
heavy: B2 heavy with D235E, D239G, D270H, D298Y, D328A
light: B2 light
notes: as for B11
B17: IL6R-BP183/IL6R-L (antibody, human IgG1)
heavy: B2 heavy with D239G, D270H, D298Y, D328A
light: B2 light
notes: as for B11
B18: IL6R-BP198/IL6R-L (antibody, human IgG1)
heavy: B2 heavy with D239G, D298Y, D328A
light: B2 light
notes: as for B11
B19: IL6R-BP188/IL6R-L (antibody, human IgG1)
heavy: B2 heavy with Y236L, D298Y, D328K
light: B2 light
notes: as for B11
B20: IL6R-BP199/IL6R-L (antibody, human IgG1)
heavy: B2 heavy with Y236L, D239G, D270H, G273P, D298Y, K332R
light: B2 light
notes: Anti-human IL-6 receptor human IgG1 variant; uncertain; copies: 2 + 2
B21: IL6R-BP186/IL6R-L (antibody, human IgG1)
heavy: B2 heavy with D270H, D328A
light: B2 light
notes: as for B11

Positions count from the first letter of the chain named. Names may count otherwise.

T6 sequence (P08637 other isoform, or with tags, fused parts or gaps limits assumed): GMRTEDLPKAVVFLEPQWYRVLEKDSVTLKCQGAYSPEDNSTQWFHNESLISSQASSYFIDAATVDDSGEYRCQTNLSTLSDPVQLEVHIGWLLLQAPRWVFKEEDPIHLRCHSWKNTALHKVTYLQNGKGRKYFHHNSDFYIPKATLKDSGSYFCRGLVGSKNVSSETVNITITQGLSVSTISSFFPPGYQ

The target of one assay is T1, human FcγRIIa(R). Description: SPR (Biacore), antibody captured on chip, FcγR as analyte, HBS-EP+, 25°C.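 Note: FcγR binding response divided by the amount of captured antibody, then expressed relative to the reference antibody ×100, with antibodies captured via immobilized Protein A, A/G, L or antigen peptides.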
Procedure: (§1) Interaction between each modified antibody and Fcγ receptor prepared in the manner described above was analyzed using the Biacore T100 (GE Healthcare), Biacore T200 (GE Healthcare), Biacore A100 or Biacore 4000. HBS-EP+ (GE Healthcare) was used for the running buffer, and measurements were carried out at 25° C. The chips used were chips in which antigen peptides, Protein A (Thermo Scientific), Protein A/G (Thermo Scientific) or Protein L (ACTIGEN or BioVision) were immobilized on the Series S Sensor Chip CM5 (GE Healthcare) or Series S Sensor Chip CM4 (GE Healthcare) by amine coupling, or chips in which preliminarily biotinylated antigen peptides were allowed to interact and then immobilized on the Series S Sensor Chip SA (certified) (GE Healthcare). The target antibodies were captured on these sensor chips, Fcγ receptor diluted with the running buffer was allowed to interact, followed by measurement of the amount of bound antibody. The amounts bound were compared between antibodies. However, since the amount of Fcγ receptor bound depends on the amount of captured antibody, the values used for comparison were first corrected by dividing the amount of Fcγ receptor bound by the captured amount of each antibody. Through reaction with 10 mM glycine-HCl at pH 1.5, the sensor chips were regenerated by washing off antibody captured on the sensor chips and used repeatedly.
(§2) Binding strength was evaluated according to the following method based on the results of analyzing the interaction with each FcγR. […] That value was then further multiplied by 100, and the resulting value was used as an indicator of relative binding activity to each FcγR.
Regarding B1, the “relative binding activity (% of GpH7-B3/GpL16-k0)” value was determined as 13%.

Another assay has as its target T5, human FcγRIa (human, UniProt P12314 16-292, limits assumed).
T5 construct: Analyte in solution on Biacore; also called FcgRIa; hFcgRIa
Described as above.
T5 sequence (P12314 16-292 limits assumed): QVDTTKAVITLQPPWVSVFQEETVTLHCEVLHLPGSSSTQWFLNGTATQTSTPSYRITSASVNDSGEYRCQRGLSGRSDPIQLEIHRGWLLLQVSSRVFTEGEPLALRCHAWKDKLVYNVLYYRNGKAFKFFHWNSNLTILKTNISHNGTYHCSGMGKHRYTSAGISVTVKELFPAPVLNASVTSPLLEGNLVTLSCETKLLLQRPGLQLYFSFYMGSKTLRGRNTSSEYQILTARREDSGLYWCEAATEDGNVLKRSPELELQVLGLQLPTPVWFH
Procedure: as §1, §2
Take B1: the “relative binding activity (% of GpH7-B3/GpL16-k0)” value came out at 88%.

A further assay has as its target T2, human FcγRIIb. Kind of assay: SPR (Biacore); binding amount divided by that of control IL6R-BF648/IL6R-L, x100.
Procedure: (§3) According to the following method, relative binding activities were calculated for the results of analyzing interactions with the respective FcγRs.
As for B2, the relative binding activity was 179 % of IL6R-BF648/IL6R-L.

In the case of B3, the relative binding activity is 124 % of IL6R-BF648/IL6R-L.

Turning to B4, the relative binding activity was 168 % of IL6R-BF648/IL6R-L.

With B5, the relative binding activity is 186 % of IL6R-BF648/IL6R-L.

Consider B6, for which the relative binding activity was 188 % of IL6R-BF648/IL6R-L.

B7: the relative binding activity is 173 % of IL6R-BF648/IL6R-L.

Take B8: the relative binding activity is 185 % of IL6R-BF648/IL6R-L.

For B9, the relative binding activity was 164 % of IL6R-BF648/IL6R-L.

On to B10, for which the relative binding activity was 144 % of IL6R-BF648/IL6R-L.

Another assay addresses T6, human FcγRIIIa type V (human, UniProt P08637 17-208, limits assumed).
T6 construct: The assay used allotype V158; also called FcgRIIIaV; FcγRIIIa(V)
Described as above.
Procedure: as §3
For the molecule B2, the relative binding activity is 206 % of IL6R-BF648/IL6R-L.

For B3, the relative binding activity is 97 % of IL6R-BF648/IL6R-L.

For B4, the relative binding activity is 92 % of IL6R-BF648/IL6R-L.

For B5, the relative binding activity is 153 % of IL6R-BF648/IL6R-L.

Turning to B6, the relative binding activity was 118 % of IL6R-BF648/IL6R-L.

B7: the relative binding activity was 122 % of IL6R-BF648/IL6R-L.

B8: the relative binding activity was 88 % of IL6R-BF648/IL6R-L.

As to B9, the relative binding activity was 157 % of IL6R-BF648/IL6R-L.

As for B10, the relative binding activity was 103 % of IL6R-BF648/IL6R-L.

A further assay concerns the target T7, human FcγRIa (human, UniProt P12314 16-292, limits assumed).
T7 construct: also called FcgRIa; CD64
Described as above.
T7 sequence (P12314 16-292 limits assumed): as above
Procedure: as §3
On to B2, for which the relative binding activity is 71 % of IL6R-BF648/IL6R-L.

B3: the relative binding activity is 74 % of IL6R-BF648/IL6R-L.

For the molecule B4, the relative binding activity was 101 % of IL6R-BF648/IL6R-L.

As to B5, the relative binding activity was 68 % of IL6R-BF648/IL6R-L.

In the case of B6, the relative binding activity is 81 % of IL6R-BF648/IL6R-L.

Regarding B7, the relative binding activity is 117 % of IL6R-BF648/IL6R-L.

On to B8, for which the relative binding activity is 35 % of IL6R-BF648/IL6R-L.

With B9, the relative binding activity is 104 % of IL6R-BF648/IL6R-L.

Take B10: the relative binding activity was 112 % of IL6R-BF648/IL6R-L.

A further assay has as its target T3, human FcγRIIa type H. The assay is described as above.
Procedure: as §3
On to B2, for which the relative binding activity was 294 % of IL6R-BF648/IL6R-L.

Turning to B3, the relative binding activity was 103 % of IL6R-BF648/IL6R-L.

For B4, the relative binding activity is 123 % of IL6R-BF648/IL6R-L.

B5: the relative binding activity was 267 % of IL6R-BF648/IL6R-L.

As to B6, the relative binding activity was 310 % of IL6R-BF648/IL6R-L.

Regarding B7, the relative binding activity is 135 % of IL6R-BF648/IL6R-L.

As for B8, the relative binding activity was 255 % of IL6R-BF648/IL6R-L.

Regarding B9, the relative binding activity is 188 % of IL6R-BF648/IL6R-L.

On to B10, for which the relative binding activity is 116 % of IL6R-BF648/IL6R-L.

For the next assay, the target named is T4, human FcγRIIb. Description: SPR (Biacore); KD of parent IL6R-B3/IL6R-L for FcγRIIb divided by KD of the variant for FcγRIIb.
Source text: Furthermore, KD(IIaR)/KD(IIb) and KD(IIaH)/KD(IIb) in the table respectively represent the value obtained by dividing the KD value of each variant for FcγRIIaR by the KD value of each variant for FcγRIIb, and the value obtained by dividing the KD value of each variant for FcγRIIaH by the KD value of each variant for FcγRIIb.
Take B11: the “KD(IIb) of the parent polypeptide/KD(IIb) of the altered polypeptide” value (shortened to “KD(IIb)”) came to 82.

As to B12, the “KD(IIb)” value worked out at 13.9.

For the molecule B13, the “KD(IIb)” value turned out to be 53.7.

For the molecule B14, the “KD(IIb)” value turned out to be 21.2.

With B15, the “KD(IIb)” value was 53.2.

As for B16, the “KD(IIb)” value turned out to be 1.7.

With B17, the “KD(IIb)” value amounted to 12.9.

For the molecule B18, the “KD(IIb)” value stood at 15.7.

For the molecule B19, the “KD(IIb)” value was 87.6.

On to B20, for which the “KD(IIb)” value is 6.3.

Take B21: the “KD(IIb)” value stood at 50.7.

The target in a further assay is T8, human FcγRIIIa type V (allotype V158) (human, UniProt P08637 17-208, limits assumed).
T8 construct: the assay used allotype V158; also called FcγRIIIaV; FcγRIIIa(V)
T8 sequence (P08637 other isoform, or with tags, fused parts or gaps limits assumed): as the sequence (P08637 other isoform, or with tags, fused parts or gaps limits assumed) above
Kind of assay: SPR (Biacore), antibody captured on the chip, FcγR as analyte.
For B11, binding was put at a Kd of 31 µM. In other words, the double-digit micromolar range.

Turning to B12, the Kd turned out to be 51 µM.

B13 gave a Kd of 33 µM.

In turn, B14 gave a Kd of 49 µM.

For B15, binding was put at a Kd of 45 µM.

In turn, B16 yielded a Kd of 56 µM.

B17 yielded a Kd of 56 µM.

In the case of B18, the Kd was determined as 44 µM. This Kd and that of the molecule before are within 1.5-fold of each other.

Molecule B19 registered a Kd of 68 µM.

The molecule B20 gave a Kd of 61 µM.

Turning to B21, the affinity, expressed as Kd, was 49 µM. This Kd and that of the molecule before are within 1.5-fold of each other.
